US20140315811A1, “OPHTHALMIC PREPARATIONS BASED ON PACAP (PITUITARY ADENYLATE CYCLASE ACTIVATING POLYPEPTIDE) WHICH RESTORE THE NORMAL VISUAL FUNCTION IN EARLY GLAUCOMA” (HMFRA HUNGARY LIMITED LIABILITY COMPANY, priority 2011, published 2014)

How the values were obtained:
[1] = tested on: DBA/2J mouse (retinal ganglion cells / inner nuclear layer response); assay: Pattern electroretinogram (P-ERG) after repeated topical application in murine spontaneous glaucoma model; type: in vivo
Text: The PACAP receptor, called PAC1, is known to be expressed in the ganglion cells (Seki et al. 1997; 2000; D'Agata and Cavallaro 1998; Hannibal and Fahrenkrug 2004; Kubrusly et al. 2005). The activity of PACAP was verified in the most common experimental model of spontaneous glaucoma, a double mutant mouse called DBA/2J (John et al., 1998; Chang et al., 1999). The DBA/2J mouse presents homozygous mutations of two separate genes; the first is […] (Tyrpl−/−) coding for a melanosome protein, and the second is a membrane glycoprotein (Gpnmb−/−); pigment granules accumulate in the trabecular meshwork, similar to the form of pigmentary glaucoma, with consequent trabecular degeneration, atrophy of the iris and progressive impairment of the outflow of aqueous humor, which leads to an increase in IOP.
This mouse is characterised by a progressive increase in IOP, with progressive loss of the retinal response to structured visual stimuli (which may be lattices formed by pale strips alternating with dark strips, or chess pieces, with different contrasts and sizes) which depends on the inner nuclear layer/ganglion cells; in humans and in the animal model, this retinal response is called the pattern electroretinogram (P-ERG; Domenici et al.,1991; Ventura and Porciatti, 2006; Falsini et al., 2008). The dysfunction of the ganglion cells is followed at a late stage by degeneration of the ganglion cells, with a reduction in their density and progressive atrophy of the optic nerve (Ventura et al., 2006; Buckingham et al., 2008). […] At the age of 11 months the IOP rises further; a progression of the disorder similar to that which takes place in human patients can therefore be deduced. […]

[2] = tested on: DBA/2J mouse (photoreceptors and outer nuclear layer response to light); assay: Flash ERG after repeated topical application in murine spontaneous glaucoma model; type: in vivo; conditions: PACAP 50 μM in saline, two weeks, one treatment every 48 h
Text: The other type of electroretinogram, flash ERG, which measures the response of the photoreceptors and the outer nuclear layer to light, appears wholly intact in glaucoma, further supporting the theory that this is a type of disorder affecting the inner nuclear layer, namely the ganglion cells, at least at the early stage.

[3] = tested on: cAMP levels in the retina; assay: Determination of cAMP levels in the retina after topical application of PACAP 38 (Cyclic AMP EIA kit, retinal homogenate); type: in vivo, mice (C57BL-6J); conditions: topical application into conjunctival sac, PACAP 50 μM (0.226 μg/μl) in saline (0.9% NaCl) and acetic acid (5%); 6 hours after application; Student's t-test p<0.05
Experimental: • The preparation Based on Saline Solution (0.9% NaCl) Containing PACAP 38 was Used
The test was conducted on mice (C57BL-6J, Harlan, Italy); PACAP 38 was applied topically, instilled into the conjunctival sac of one eye, while the other eye, used as control, was treated with the saline solution (“placebo”) only. • Determination of cAMP Levels in the Retina
The animals were sacrificed 6 hours after the topical application, when deep anaesthesia had been induced by an intraperitoneal urethane injection (20%). The eye was then removed, and the cAMP level measured in the retinal homogenate of the eye treated with PACAP and of the other eye treated with saline only (control eye). The measurements were performed by cyclic AMP assay using the Cyclic AMP EIA KIT ([…]). The results shown in the chart in FIG. 1 were obtained with a topical application of PACAP (50 μM; 0.226 μg/μl) in saline solution (0.9% NaCl) and acetic acid (5%), and are expressed as relative values (%) compared with the control eye.

## Pituitary Adenylate Cyclase Activating Polypeptide [PACAP]
[1]; 500 nM (0.0022 μg/μl), 1 μM (0.0045 μg/μl), 50 μM (0.226 μg/μl), topical, every 48 hours for two weeks, 8-month-old mice
  Effectiveness on P-ERG across the three concentrations tested: only the highest concentration (50 μM, 0.226 μg/μl) proved effective
[1]; PACAP 50 μM (0.226 μg/μl) in saline, topical, one application every 48 hours for 2 weeks between 8 and 8.5 months of age, p<0.05
  Effect on alteration of P-ERG (treated eye vs control eye): prevented the alteration of P-ERG
[1]; repeated topical treatment, DBA/2J mouse, early stage glaucoma
  Minimal effective concentration able to exert protective effects on the ganglion cell function: 0.226 µg/µL
[2]
  Flash ERG of the treated eye (response of photoreceptors and outer nuclear layer to light): normal flash ERG
[3]
  cAMP level in retinal homogenate, treated eye compared with control eye: significantly higher
